In article PMC3988464 (Journal of immunology (Baltimore, Md. : 1950), 2014) one finds Kd, koff and kon data, which are given here for 3 molecules.

The target of experiment [1] is Full-length, wild type recombinant human TSG-6 (human, UniProt P98066 18-277). In words: SPR.
Experiment [2] has as its target Isolated Link module of human TSG-6 (Link_TSG6) (human, UniProt P98066 36-129). In words: SPR. On the technique in general: In SPR one partner is held on a chip, and binding of the other changes the refractive index at the surface.

Chain of Isolated Link module of human TSG-6 (Link_TSG6) (P98066 36-129): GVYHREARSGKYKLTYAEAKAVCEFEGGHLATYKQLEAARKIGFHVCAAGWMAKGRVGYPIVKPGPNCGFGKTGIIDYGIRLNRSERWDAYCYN
Chain of Full-length, wild type recombinant human TSG-6 (P98066 18-277): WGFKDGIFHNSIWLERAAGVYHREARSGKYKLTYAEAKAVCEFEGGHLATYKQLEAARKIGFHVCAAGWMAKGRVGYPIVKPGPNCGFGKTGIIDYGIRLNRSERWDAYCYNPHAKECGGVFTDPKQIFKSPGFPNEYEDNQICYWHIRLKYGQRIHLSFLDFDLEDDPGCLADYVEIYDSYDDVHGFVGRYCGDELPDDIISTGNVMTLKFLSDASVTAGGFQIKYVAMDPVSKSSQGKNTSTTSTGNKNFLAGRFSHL

B1: CXCL8_T (K64A/K67A/R68A) mutant (ligand)
chain: SAKELRCQCIKTYSKPFHPKFIKELRVIESGPHCANTEIIVKLSDGRELCLDPKENWVQRVVEAFLAAAENS
modifications: 72-residue mature form by convention (mature numbering +27 = precursor); monomer/dimer equilibrium
For B1, in experiment [1], the dissociation constant Kd (in general, the constant that tells how readily two partners part at equilibrium) came to 2110 nM; the dissociation rate constant (koff) (commonly the rate constant with which the complex falls apart) worked out at 0.0014 s⁻¹; the kon (in general, a measure of how fast the partners come together) turned out to be 640 M⁻¹ s⁻¹.

B2: CCL5 (ligand, UniProt P13501 24-91, looked up)
chain: SPYSSDTTPCCFAYIARPLPRAHIKEYFYTSGKCSNPAVVFVTRKNRQVCANPEKKWVREYINSLEMS
Consider B2, for which, in experiment [2], the Kd is 2 nM, the koff was 0.00011 s⁻¹ and the kon worked out at 57000 M⁻¹ s⁻¹.

B3: CXCL11 (ligand, UniProt O14625 22-94, looked up)
chain: FPMFKRGRCLCIGPGVKAVKVADIEKASIMYPSNNCDKIEVIITLKENKGQRCLNPKSKQARLIIKKVERKNF
On to B3, for which, in experiment [1], the Kd came to 16.4 nM, the koff was 0.00011 s⁻¹ and the kon was found to be 6400 M⁻¹ s⁻¹.
